{
  "source": "patent US20030212001A1",
  "about": "(THERATECHNOLOGIES, published 2003)",
  "target": "R-14 protein (as present in the eye of newborn pigs)",
  "assay": "cell-based or functional assay",
  "data": [
    {"binder": "HIICSPLR", "note": "[peptide 1402]", "values": [
      {"measurement": "IC50, dose response on basal intraocular pressure (IOP) of piglet", "result": 86.4, "unit": "nM"}
    ]},
    {"binder": "IFDSTECW", "note": "[peptide 1405]", "values": [
      {"measurement": "IC50, dose response on basal intraocular pressure (IOP) of piglet", "result": 342, "unit": "nM"}
    ]}
  ]
}
